Holding throughout (experiment): EMSA
Background: Mobility shift assays separate free from complexed probe on a gel.

Data set [1] addresses T1, Aca11 (Streptococcus sp. F0441).
T1 chain: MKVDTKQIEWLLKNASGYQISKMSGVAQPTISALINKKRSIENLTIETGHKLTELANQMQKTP

The target of data set [2] is T2, A32CTD (Aca13) (Streptococcus uberis NZ01).
T2 chain: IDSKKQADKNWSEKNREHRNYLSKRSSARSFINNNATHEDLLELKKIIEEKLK

Data set [3] addresses T3, AcrIIA32 (Acr-Aca13 fusion) (Streptococcus uberis NZ01).
T3 chain: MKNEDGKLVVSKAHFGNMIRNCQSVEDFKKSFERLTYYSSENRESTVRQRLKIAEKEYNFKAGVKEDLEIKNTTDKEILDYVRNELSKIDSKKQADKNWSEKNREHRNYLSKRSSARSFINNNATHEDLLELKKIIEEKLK

Data set [4] addresses T2, A32CTD (Aca13).
Data set [5] addresses T3, AcrIIA32 (Acr-Aca13 fusion).
Another data set addresses T4, A35-n-Aca13.
T4 chain: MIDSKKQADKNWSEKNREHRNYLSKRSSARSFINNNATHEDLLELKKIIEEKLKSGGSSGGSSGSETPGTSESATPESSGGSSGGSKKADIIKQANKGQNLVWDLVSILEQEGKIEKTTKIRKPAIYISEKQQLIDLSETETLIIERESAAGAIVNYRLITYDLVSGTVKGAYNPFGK

Another data set concerns the target T5, A35-c-Aca13.
T5 chain: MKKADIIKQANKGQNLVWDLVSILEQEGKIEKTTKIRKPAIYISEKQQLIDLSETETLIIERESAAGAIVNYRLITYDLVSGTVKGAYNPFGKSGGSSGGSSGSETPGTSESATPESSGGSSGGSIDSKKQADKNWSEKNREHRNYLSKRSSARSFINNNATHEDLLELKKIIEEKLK

The target in data set [6] is T1, Aca11.

Read-outs that look alike come from different tables or passages of the source.

B1: Aca11-s1 IR WT probe (dsDNA)
DNA 1: GTGTTGACAGTATATAACAAATGTTATATACTATACTTGTAAGATAAATAAAACAA
DNA 2: TTGTTTTATTTATCTTACAAGTATAGTATATAACATTTGTTATATACTGTCAACAC
For the molecule B1, the binding result with Aca11 [1] is given as “binds”.

B2: Aca13-s1 scIR2 probe (dsDNA)
DNA 1: AGTTGATAAAAAGTGTTGACTTTTTAACGTACAGAGCTGTGCATATAATCATAAAGAT
DNA 2: ATCTTTATGATTATATGCACAGCTCTGTACGTTAAAAAGTCAACACTTTTTATCAACT
Regarding B2, the binding result (in the data set with A32CTD (Aca13) [2]; in data set [3]) was “no binding” in each case.

B3: Aca13-s1 WT probe (Aca13 probe) (dsDNA)
DNA 1: AGTTGATAAAAAGTGTTGACTTTTTAACGTACATGTACTATAATATAATCATAAAGAT
DNA 2: ATCTTTATGATTATATTATAGTACATGTACGTTAAAAAGTCAACACTTTTTATCAACT
In the case of B3, the binding result (in the data set with A32CTD (Aca13) [4]; in data set [5]; with A35-n-Aca13; with A35-c-Aca13) was “binds” each time.

B4: Aca13-s1 scIR1 probe (dsDNA)
DNA 1: AGTTGATCCCCCTAGTTGACTTTTTAACGTACATGTACTATAATATAATCATAAAGAT
DNA 2: ATCTTTATGATTATATTATAGTACATGTACGTTAAAAAGTCAACTAGGGGGATCAACT
Take B4: the binding result (with A32CTD (Aca13) [4]; in data set [5]) was “binds” each time.

B5: Aca11-s1 scIR probe (dsDNA)
DNA 1: GTGTTGACAGGCGCGCCTCAATGTTATATACTATACTTGTAAGATAAATAAAACAA
DNA 2: TTGTTTTATTTATCTTACAAGTATAGTATATAACATTGAGGCGCGCCTGTCAACAC
As for B5, the binding result with Aca11 [6] is recorded as “no binding”.

Source of the values: PMC12282945.
